This is an account of results in the supplement of paper PMC10219994.

± gives the standard deviation of the averaged measurements.

B1: library; a variant is named by its letters at N, in order (parent)
chain: GAGACCGCAACTGAAAAGTTGTGGNNNNNATAGTGAGTCGCTGCCTGCAAAGACACAACT

The variants in this data set derive from B1. As to the kind of experiment: ligation selection enrichment (abundance after / before one-round selection) (fold); higher = more template-directed ligation activity. The note with it: with T7Psub CACGGAUGCUAAUACGACUCACUAUA; MgCl2 25 mM; 42 °C; 4 h; pH 8.5. Put shortly:
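In each of two independent experiments, 6 μM RNA substrate was reacted for 4 h at 42 °C with 0.75 μM of a T7-transcribed RNA ligase library randomized at five core positions, in buffer containing 50 mM EPPS pH 8.5 and 25 mM MgCl2. Only reads scoring ≥30 in quality at all randomized positions were counted after MiSeq sequencing. Each enrichment value is the ratio of abundance after ligation to abundance before ligation.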
For GAGACCGCAACTGAAAAGTTGTGGCTAGGATAGTGAGTCGCTGCCTGCAAAGACACAACT [CTAGG], the ligation selection enrichment is 0.212 ± 0.06.
As for GAGACCGCAACTGAAAAGTTGTGGCTAGCATAGTGAGTCGCTGCCTGCAAAGACACAACT [CTAGC], the figure is 0.123 ± 0.0069; as for GAGACCGCAACTGAAAAGTTGTGGCTAGTATAGTGAGTCGCTGCCTGCAAAGACACAACT [CTAGT], 0.209 ± 0.029.
With GAGACCGCAACTGAAAAGTTGTGGCTAGAATAGTGAGTCGCTGCCTGCAAAGACACAACT [CTAGA] the figure was 0.263 ± 0.038; with GAGACCGCAACTGAAAAGTTGTGGATATGATAGTGAGTCGCTGCCTGCAAAGACACAACT [ATATG], 1.01 ± 0.061; with GAGACCGCAACTGAAAAGTTGTGGATATCATAGTGAGTCGCTGCCTGCAAAGACACAACT [ATATC], 0.177 ± 0.029.
On to GAGACCGCAACTGAAAAGTTGTGGATATAATAGTGAGTCGCTGCCTGCAAAGACACAACT [ATATA], for which the ligation selection enrichment was determined as 0.239 ± 0.089.
With GAGACCGCAACTGAAAAGTTGTGGATATTATAGTGAGTCGCTGCCTGCAAAGACACAACT [ATATT] the figure was 0.203 ± 0.037; with GAGACCGCAACTGAAAAGTTGTGGTTAGGATAGTGAGTCGCTGCCTGCAAAGACACAACT [TTAGG], 0.306 ± 0.061.
With GAGACCGCAACTGAAAAGTTGTGGTTAGCATAGTGAGTCGCTGCCTGCAAAGACACAACT [TTAGC] the figure was 0.139 ± 0.035; with GAGACCGCAACTGAAAAGTTGTGGTTAGTATAGTGAGTCGCTGCCTGCAAAGACACAACT [TTAGT], 0.265 ± 0.074; with GAGACCGCAACTGAAAAGTTGTGGTTAGAATAGTGAGTCGCTGCCTGCAAAGACACAACT [TTAGA], 0.304 ± 0.054.
With GAGACCGCAACTGAAAAGTTGTGGATAGCATAGTGAGTCGCTGCCTGCAAAGACACAACT [ATAGC] the figure was 0.131 ± 0.033; with GAGACCGCAACTGAAAAGTTGTGGATAGGATAGTGAGTCGCTGCCTGCAAAGACACAACT [ATAGG], 0.3 ± 0.012; with GAGACCGCAACTGAAAAGTTGTGGATAGTATAGTGAGTCGCTGCCTGCAAAGACACAACT [ATAGT], 0.17 ± 0.01.
With GAGACCGCAACTGAAAAGTTGTGGATAGAATAGTGAGTCGCTGCCTGCAAAGACACAACT [ATAGA], the ligation selection enrichment came to 0.543 ± 0.062.
With GAGACCGCAACTGAAAAGTTGTGGCTCCCATAGTGAGTCGCTGCCTGCAAAGACACAACT [CTCCC] the figure was 0.0937 ± 0.042; with GAGACCGCAACTGAAAAGTTGTGGCTCCAATAGTGAGTCGCTGCCTGCAAAGACACAACT [CTCCA], 0.1489 ± 0.00039.
As for GAGACCGCAACTGAAAAGTTGTGGGTAATATAGTGAGTCGCTGCCTGCAAAGACACAACT [GTAAT], the figure is 4.35 ± 0.56.
As for GAGACCGCAACTGAAAAGTTGTGGGTAAGATAGTGAGTCGCTGCCTGCAAAGACACAACT [GTAAG], the figure is 0.509 ± 0.011; as for GAGACCGCAACTGAAAAGTTGTGGGTAACATAGTGAGTCGCTGCCTGCAAAGACACAACT [GTAAC], 0.305 ± 0.011.
In the case of GAGACCGCAACTGAAAAGTTGTGGATACCATAGTGAGTCGCTGCCTGCAAAGACACAACT [ATACC], the ligation selection enrichment stood at 0.169 ± 0.016.
As for GAGACCGCAACTGAAAAGTTGTGGATACTATAGTGAGTCGCTGCCTGCAAAGACACAACT [ATACT], the figure is 0.541 ± 0.11.
With GAGACCGCAACTGAAAAGTTGTGGATACGATAGTGAGTCGCTGCCTGCAAAGACACAACT [ATACG], the ligation selection enrichment was found to be 1.5 ± 0.28.
As for GAGACCGCAACTGAAAAGTTGTGGATACAATAGTGAGTCGCTGCCTGCAAAGACACAACT [ATACA], the figure is 0.257 ± 0.032; as for GAGACCGCAACTGAAAAGTTGTGGGTCACATAGTGAGTCGCTGCCTGCAAAGACACAACT [GTCAC], 0.221 ± 0.0092.
With GAGACCGCAACTGAAAAGTTGTGGGTCAAATAGTGAGTCGCTGCCTGCAAAGACACAACT [GTCAA] the figure was 0.766 ± 0.16.
With GAGACCGCAACTGAAAAGTTGTGGGTCAGATAGTGAGTCGCTGCCTGCAAAGACACAACT [GTCAG] the figure was 0.628 ± 0.038; with GAGACCGCAACTGAAAAGTTGTGGGTCATATAGTGAGTCGCTGCCTGCAAAGACACAACT [GTCAT], 0.373 ± 0.0027.
For the variant GAGACCGCAACTGAAAAGTTGTGGTTATGATAGTGAGTCGCTGCCTGCAAAGACACAACT [TTATG], the ligation selection enrichment was 0.377 ± 0.02.
For the variant GAGACCGCAACTGAAAAGTTGTGGTTATAATAGTGAGTCGCTGCCTGCAAAGACACAACT [TTATA], the ligation selection enrichment is 0.465 ± 0.12.
As for GAGACCGCAACTGAAAAGTTGTGGTTATCATAGTGAGTCGCTGCCTGCAAAGACACAACT [TTATC], the ligation selection enrichment amounted to 0.152 ± 0.02.
As for GAGACCGCAACTGAAAAGTTGTGGTTATTATAGTGAGTCGCTGCCTGCAAAGACACAACT [TTATT], the figure is 0.206 ± 0.071; as for GAGACCGCAACTGAAAAGTTGTGGATAAAATAGTGAGTCGCTGCCTGCAAAGACACAACT [ATAAA], 0.228 ± 0.05; as for GAGACCGCAACTGAAAAGTTGTGGATAATATAGTGAGTCGCTGCCTGCAAAGACACAACT [ATAAT], 2.48 ± 0.27.
As to GAGACCGCAACTGAAAAGTTGTGGATAACATAGTGAGTCGCTGCCTGCAAAGACACAACT [ATAAC], the ligation selection enrichment was 0.204 ± 0.038.
With GAGACCGCAACTGAAAAGTTGTGGATAAGATAGTGAGTCGCTGCCTGCAAAGACACAACT [ATAAG] the figure was 0.373 ± 0.099; with GAGACCGCAACTGAAAAGTTGTGGCTATAATAGTGAGTCGCTGCCTGCAAAGACACAACT [CTATA], 0.148 ± 0.068.
With GAGACCGCAACTGAAAAGTTGTGGCTATTATAGTGAGTCGCTGCCTGCAAAGACACAACT [CTATT] the figure was 0.546 ± 0.083; with GAGACCGCAACTGAAAAGTTGTGGCTATGATAGTGAGTCGCTGCCTGCAAAGACACAACT [CTATG], 0.36 ± 0.029; with GAGACCGCAACTGAAAAGTTGTGGCTATCATAGTGAGTCGCTGCCTGCAAAGACACAACT [CTATC], 0.144 ± 0.0049.
With GAGACCGCAACTGAAAAGTTGTGGGTAGAATAGTGAGTCGCTGCCTGCAAAGACACAACT [GTAGA] the figure was 1.05 ± 0.13; with GAGACCGCAACTGAAAAGTTGTGGGTAGGATAGTGAGTCGCTGCCTGCAAAGACACAACT [GTAGG], 0.422 ± 0.043; with GAGACCGCAACTGAAAAGTTGTGGGTAGCATAGTGAGTCGCTGCCTGCAAAGACACAACT [GTAGC], 0.191 ± 0.035.
